Target: calmodulin (UniProt P0DP23 1-149)
Assay: other fluorescence titration

- Kd: 3.8 µM
B1: BSα1A-AR333-361mut, FRET biosensor with K353Q/L356A SMD4JM (a.a. 333-361) of the human α1A adrenoceptor between ECFP and EYFPc (domain or fragment)
chain: FKKAFQNVLRIQCLCRKQSSQHAAGYTLH

— PMC6409194 (European journal of pharmacology, 2019)
